Consider 132 substances from the supplement of paper PMC12042874.

± gives the uncertainty stated by the source.

The series can be described thus: amyloid nucleation score (Sup35N fusion, yeast selection) (log enrichment); library NNK3; higher = more nucleation; inactive = no reads after selection. The gist of the method:
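The nucleation score equals the log enrichment of output over input reads from DiMSum, centred on the mode score of non-aggregating sequences. It was computed only for sequences with 100 or more input reads. The reads came from Illumina sequencing of plasmid inserts from psi-negative yeast expressing Sup35N fused to peptides of 20 random codons, induced with 100 μM copper sulfate for 24 hours and grown 7 days at 30°C without adenine and uracil.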
For the substance RGWVPVTVIQWIMIDCQFKA, the amyloid nucleation score came to 2.78 ± 0.054.

As to QHSFVNSIFSSLGTLRKNLL, the amyloid nucleation score result was “inactive”.

Turning to SPRLYETRMLPLTMGCGGDD, the amyloid nucleation score entry is “inactive”.

For the substance TIGFFSVVNYVWFSAYNWQS, the amyloid nucleation score is -0.453 ± 0.35.

As to LWNFYSDCNGVPQDESLVEG, the amyloid nucleation score entry was “inactive”.

Turning to DYVAGN, the amyloid nucleation score entry was “inactive”.

Turning to YNDCNIN, the amyloid nucleation score entry is “inactive”.

Regarding ELSANTSFTNSHMTMTTKLF, the amyloid nucleation score result is “inactive”.

Take SVHRLFISCKVWGFKVLWPV: the amyloid nucleation score entry is “inactive”.

Turning to AEIKMLLLQIHDS, the amyloid nucleation score is 0.078 ± 0.23.

On to SHRFLDNFRFTMYTDVLGIE, for which the amyloid nucleation score result is “inactive”.

Take EFLGFCFPIAGYFLKDEKIG: the amyloid nucleation score entry was “inactive”.

ITLLCLFNATL: the amyloid nucleation score was found to be 1.98 ± 0.085.

For the substance RSEVQHKLVSFLSKLIPRAS, the amyloid nucleation score result was “inactive”.

Consider AQPVNMDKSWG, for which the amyloid nucleation score entry was “inactive”.

Turning to TFRWFDGIKTLMMD, the amyloid nucleation score entry was “inactive”.

For the substance LNSIG, the amyloid nucleation score entry is “inactive”.

Regarding SYNRAA, the amyloid nucleation score result was “inactive”.

LRKPYLEY: the amyloid nucleation score result is “inactive”.

On to IVLTFYIYRNSYCSAV, for which the amyloid nucleation score worked out at 0.89 ± 0.092.

For ASTDEDFNTNTECT, the amyloid nucleation score result is “inactive”.

Regarding VYNTGFLGPVSFSAGKFLML, the amyloid nucleation score was 0.943 ± 0.13.

As to RVVSSGRGNSHTAATGWLWQ, the amyloid nucleation score entry was “inactive”.

Regarding GDYGCFSLMQTHTEEEILMR, the amyloid nucleation score result was “inactive”.

Consider MRHEHAYSIPAHCIYELIMM, for which the amyloid nucleation score result was “inactive”.

Regarding IGISSGVTKICYGGTFKHMP, the amyloid nucleation score entry is “inactive”.

For the substance MTAVVDRTSNGYSYVTGHLL, the amyloid nucleation score entry is “inactive”.

With WTTNLVNAYLDRHVHNLMPL, the amyloid nucleation score entry was “inactive”.

Turning to QDPLVT, the amyloid nucleation score entry was “inactive”.

For GNCSWRVYGISSGFLRHGAV, the amyloid nucleation score result was “inactive”.

Take HSFVSWTRLT: the amyloid nucleation score entry is “inactive”.

For the substance FCATRTKVGLHGYASCEDCG, the amyloid nucleation score is -0.249 ± 0.48.

HCSQLFESTYKRMSHISRDL showed an amyloid nucleation score of -0.56 ± 0.73.

With KSAREFGAHFMSTITVACTR, the amyloid nucleation score result was “inactive”.

In turn, MYLIYGHGTIIICTESVSVH showed an amyloid nucleation score of 0.361 ± 0.15.

With FLTWRIGVVS, the amyloid nucleation score entry is “inactive”.

In the case of VSVLIHGKRSFGMWCSMHAY, the amyloid nucleation score result is “inactive”.

For LLVLRGYSDVIFKNTLYGNE, the amyloid nucleation score result was “inactive”.

On to FIIAWWCNVSVDKTSERHYV, for which the amyloid nucleation score was found to be 1.55 ± 0.079.

As to SISRLCVRMRIYKRTVAIYL, the amyloid nucleation score entry is “inactive”.

On to LPGFSTCFARCDWWEVQPQG, for which the amyloid nucleation score result was “inactive”.

WVGLCFLRFQVHSTSDESVS: the amyloid nucleation score result is “inactive”.

For the substance HSVWVYKHGLCDMWGGLTLI, the amyloid nucleation score entry is “inactive”.

In turn, YRIVVVMMAIISTNDNIP came in with an amyloid nucleation score of 0.371 ± 0.26.

Consider RLLNVLKRYLMVSLQKAGSD, for which the amyloid nucleation score result is “inactive”.

SPRKTNEAWPTGLSYETSVA: the amyloid nucleation score result is “inactive”.

In turn, MNDNLNNHVSDEIFSFVG returned an amyloid nucleation score of 0.813 ± 0.2.

As for CDIHLRIY, the amyloid nucleation score entry is “inactive”.

On to SSLIGRVDRIMYVSARERTI, for which the amyloid nucleation score entry was “inactive”.

YGVWCSYKFVYSCDPYDSAG: the amyloid nucleation score amounted to 0.557 ± 0.15.

LSILTFGSCTNKSH: the amyloid nucleation score entry was “inactive”.

Consider SIALH, for which the amyloid nucleation score entry is “inactive”.

With HEVCS, the amyloid nucleation score entry is “inactive”.

With AVRMICDSCAYSLPTWVDLA, the amyloid nucleation score was -0.592 ± 1.4.

For SFKATV, the amyloid nucleation score result was “inactive”.

As for SRILGNRMAFTA, the amyloid nucleation score result was “inactive”.

Take NKGSVDGYMFSTGVTFLMLE: the amyloid nucleation score result is “inactive”.

As for SCWYETMLFSLCKFKYLGLM, the amyloid nucleation score result is “inactive”.

Take GDYSWSM: the amyloid nucleation score was 0.167 ± 0.42.

Turning to GIMDLDEGLET, the amyloid nucleation score result is “inactive”.

KIHCAESATVVLWVRVGDCR: the amyloid nucleation score result is “inactive”.

Turning to SWDYSKRNCSVEKVWTELNF, the amyloid nucleation score entry was “inactive”.

On to YFVYEG, for which the amyloid nucleation score entry was “inactive”.

LAASLSGIYCPSLAWRGLKE: the amyloid nucleation score entry is “inactive”.

With KWFAATVLSNKPREEKRMVT, the amyloid nucleation score result was “inactive”.

Take SYGSLM: the amyloid nucleation score came out at 0.198 ± 0.27.

As for YGSSHYPYNSY, the amyloid nucleation score entry was “inactive”.

As to WSRMTKSHKCRWDQLVTVHG, the amyloid nucleation score result is “inactive”.

As for TIPFRAINPVSM, the amyloid nucleation score result was “inactive”.

As to FLNIGYLNSRYNFLRNSVLV, the amyloid nucleation score entry is “inactive”.

Substance CQIEILLPLDVLY displayed an amyloid nucleation score of 1.06 ± 0.09.

On to SMVFLASLY, for which the amyloid nucleation score entry was “inactive”.

WEYNASLLVLTHLGWAFHLC: the amyloid nucleation score result is “inactive”.

Turning to EQSTRKGNR, the amyloid nucleation score entry is “inactive”.

As for QSCCKQQILYHRGQTRHQ, the amyloid nucleation score entry was “inactive”.

Regarding TNYNHCKCEIGLGHILARFT, the amyloid nucleation score result is “inactive”.

Consider RYLVRCSFWVGKNLV, for which the amyloid nucleation score stood at 0.722 ± 0.2.

Consider KCSFTVNYRRRYSLYC, for which the amyloid nucleation score entry was “inactive”.

With LYWKEIPGMDYKMAV, the amyloid nucleation score result is “inactive”.

For the substance ATFYSFLRFKQINNRNNEAF, the amyloid nucleation score entry was “inactive”.

Consider LRVTKQVLSSMMFTITFGGD, for which the amyloid nucleation score entry was “inactive”.

VFGFMCNYSFVATSRLCVIG: the amyloid nucleation score entry is “inactive”.

Turning to GLITWT, the amyloid nucleation score entry was “inactive”.

Regarding RRSCCLVLTIRVFCRICRDE, the amyloid nucleation score entry is “inactive”.

As to ISRLLPPWNNRHIFSFVYLS, the amyloid nucleation score entry was “inactive”.

Turning to QKEDFIVSLWYRVRLFDRNS, the amyloid nucleation score entry was “inactive”.

In the case of LCFRLDVSRMCTVSGNIGYC, the amyloid nucleation score was determined as 1.57 ± 0.079.

Consider INWTRLRSRSEVWDTGRVWT, for which the amyloid nucleation score entry was “inactive”.

Regarding QVTDEGD, the amyloid nucleation score result is “inactive”.

Turning to RDQEHSRTFISM, the amyloid nucleation score result was “inactive”.

Take FQESVIWKVYRNNNYRSLTV: the amyloid nucleation score result was “inactive”.

As for YTDIVSAIEEVF, the amyloid nucleation score result was “inactive”.

NIARRTIKLTPFFSIFCVYS had an amyloid nucleation score of 3.2 ± 0.055.

For the substance RYPLSDDPLGIVWITYMLAN, the amyloid nucleation score entry was “inactive”.

With DSMCRYV, the amyloid nucleation score was 0.893 ± 0.12.

As for MSVRG, the amyloid nucleation score entry is “inactive”.

For IYVGKRNSCRPSSEDSVGNR, the amyloid nucleation score turned out to be 0.402 ± 0.38.

In the case of SVFFPVEFTFRVGETLCCFF, the amyloid nucleation score came to 3.01 ± 0.062.

For the substance VLYGRSGVVEANRC, the amyloid nucleation score entry is “inactive”.

For FNRLDTNTTSGPRTGTTLEM, the amyloid nucleation score result was “inactive”.

Take ANTGMWLRMFPCWAPWDRVE: the amyloid nucleation score result is “inactive”.

VGNFYVSNVAFLWVK: the amyloid nucleation score entry was “inactive”.

On to ANTGFLLSWNGFLLMCLELD, for which the amyloid nucleation score result was “inactive”.

As to NAHLRCMTTILGLFQTFGRG, the amyloid nucleation score amounted to 2.02 ± 0.063.

Turning to DIVANYQMM, the amyloid nucleation score result was “inactive”.

As to ETGYKCAKGFYRCTGRGMVW, the amyloid nucleation score entry is “inactive”.

Take GNVIMLLVTLASGCIPLSSE: the amyloid nucleation score result is “inactive”.

Regarding VLQYECHVDMCRGRWSLGAI, the amyloid nucleation score entry was “inactive”.

Regarding RVIRNQSVRTPP, the amyloid nucleation score entry was “inactive”.

Turning to ILVDWFDCDQCKQTFCPGLV, the amyloid nucleation score result is “inactive”.

For the substance HQNSCDMLFRLSSTYLWGRA, the amyloid nucleation score entry is “inactive”.

On to HSRYLMQLYVNSFSRFD, for which the amyloid nucleation score turned out to be 1.28 ± 0.12.

Take DLYCMPLAAVLFGGGC: the amyloid nucleation score result was “inactive”.

As to CLYRGGFSFYDFSGFCVLSS, the amyloid nucleation score result was “inactive”.

Consider KYNFNYPEITLAPTYYMSIT, for which the amyloid nucleation score entry was “inactive”.

Regarding TMASYWPMERRRTASELPGV, the amyloid nucleation score result is “inactive”.

On to NLRFRSIFSS, for which the amyloid nucleation score result is “inactive”.

For the substance WFCNYRIMYKVSSIAPMLNP, the amyloid nucleation score result was “inactive”.

With GYKFWCSVFLVWLILHVRQS, the amyloid nucleation score result is “inactive”.

Turning to YGNHFSNNDGSIFER, the amyloid nucleation score entry was “inactive”.

On to VRSFFYRSLYQCISRNPCCA, for which the amyloid nucleation score entry was “inactive”.

As for SLKPLVYMGLST, the amyloid nucleation score entry is “inactive”.

ICELLRFDPMLTCFRM: the amyloid nucleation score was found to be 0.77 ± 0.2.

As for IERSNFLQCPVRGLRNTARV, the amyloid nucleation score worked out at 0.526 ± 0.26.

FRVLYDCGTGYAVCYAMEVK: the amyloid nucleation score entry is “inactive”.

In the case of HSFIYVLDVLNVR, the amyloid nucleation score entry is “inactive”.

The substance CYYTKVNVSS displayed an amyloid nucleation score of 0.021 ± 0.26.

In the case of LFSWRKYGVNHQLLGVEIQS, the amyloid nucleation score result is “inactive”.

Turning to IFLKNCLLWKTAGSFMNSIA, the amyloid nucleation score result is “inactive”.

In the case of DLSMGNCEVVGLESSTTICK, the amyloid nucleation score entry was “inactive”.

Turning to LVDCFKLCRELNGLILNVAA, the amyloid nucleation score was 1.07 ± 0.12.

In the case of GVHVVYCVRFSEGIVYTSGF, the amyloid nucleation score amounted to 0.906 ± 0.2.
